Target: CD43 (leukosialin) on the surface of primary human neutrophils (human (endogenous in primary neutrophils)) (UniProt P16150)
Chain of UniProt P16150 (P16150 20-400): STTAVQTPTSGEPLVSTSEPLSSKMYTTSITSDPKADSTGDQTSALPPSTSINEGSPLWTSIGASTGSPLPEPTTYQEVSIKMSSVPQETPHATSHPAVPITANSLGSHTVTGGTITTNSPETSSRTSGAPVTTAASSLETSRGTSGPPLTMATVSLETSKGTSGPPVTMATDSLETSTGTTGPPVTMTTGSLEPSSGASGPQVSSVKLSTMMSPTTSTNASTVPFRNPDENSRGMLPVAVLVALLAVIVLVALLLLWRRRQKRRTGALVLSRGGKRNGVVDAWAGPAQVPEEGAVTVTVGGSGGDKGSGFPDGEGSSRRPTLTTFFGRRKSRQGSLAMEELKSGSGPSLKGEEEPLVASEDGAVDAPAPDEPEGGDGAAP

Row | Substance | migration of human neutrophils across Fbg-coated transwell filters toward fMLP, 25 µg/mL protein (fold reduction)
1 | StcE E435D, proteolytically inactive point mutant (from UniProt O82882 36-898) (enzyme) | 1.7
2 | StcE (Secreted protease of C1-esterase inhibitor), recombinant purified protein (from UniProt O82882 36-898) (enzyme) | 1.7

Source: paper PMC2642718
